Measured values: US20160376333A1

Assays:
[1] = biological target: Epstein-Barr virus BHRF1 a.a. 1-161 with C-terminal avi-6his tag (Epstein-Barr virus); experiment: crystal structure PDB 2WH6 of Bim-BH3 bound to BHRF1; solvent-accessible surface buried in the complex
[2] = biological target: Epstein-Barr virus BHRF1 a.a. 1-161 with C-terminal avi-6his tag (Epstein-Barr virus)
[3] = biological target: Epstein-Barr virus BHRF1 a.a. 1-161 with C-terminal avi-6his tag (Epstein-Barr virus); remark: listed apart in the source

Sequence of Bim-BH3 (peptide) (O43521 141-166): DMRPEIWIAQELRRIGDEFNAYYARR

Q: With Bim-BH3 (peptide) as the substance, how does the Total buried SASA [1] read?
A: 2000 Å2

Q: And the buried contact surface on Bim-BH3 [2]?
A: 1100 Å2

Q: What about the buried contact surface on BHRF1 [3] of the same substance?
A: 908 Å2
